Measured values from patent publication US20240317865A1, “ANTIBODIES AGAINST INTEGRIN ALPHA 11 BETA 1” (MOMENTA PHARMACEUTICALS, INC., priority 2020, published 2024).
Positions count from the first letter of the chain named. “Also recorded” adds a separate entry of the source.

B1: 24E4G6: rat anti-α11β1 mAb; VH SEQ ID NO: 147, VL SEQ ID NO: 148 (antibody, V domains shown)
VH: MELELSLIFIFSLLKDVQCEVQLVESGGSLVQPGGSLKLSCVASGYTFSNYWMDWVRQSPGKSLEWIGEINTDGRRTNYAPSIKDRFTISRDNAKSTLYLQMSNVKSDDTAIYYCTILRVYPHYFDYWGQGVMVTVSS
VL: MMSPAQFLFLLMLWIQEARGDVVMTQTPPSLSVAIGQSVSISCKSSQSLVYSDGETYLHWFLQSPGRSPKRLIYHVSNLGSGVPDRFSGTGSLTDFTLRISRVEAEDLGVYYCAQTTHFPPTFGAGTKLELK
B2: 1994_01_D12: fully human anti-α11β1 mAb from phage display; HCDR3 SEQ ID NO: 267, LCDR3 SEQ ID NO: 334 (antibody, V domains shown)
VH: QVQLVQSGAEVKKPGSSVKVSCKASGYTFTSYGISWVRQAPGQGLEWMGWISAYNGNTNYAQKLQGRVTMTTNTSTSTAYMELRSLRSDDTAVYYCARVTGITGTTIDPWGQGTLVTVSS
VL: DIQMTQSPSSLSASVGDRVTITCRASQSISSYLNWYRQKPGKAPKLLIYAASSLQSGVPSRFSGSGSGTDFTLTISSLQPEDAATYYCQQYDSQSGTFGQGTKLEIK
B3: 8H8E9: rat anti-α11β1 mAb; VH SEQ ID NO: 149, VL SEQ ID NO: 150 (antibody, V domains shown)
VH: MAVLVLLLCLVTFPSCALSQVQLKESGPGLVQPSQTLSLTCTVSGFSLTSNSVSWVRQAPGKGLEWMGAIWSGGSTDYNSALKSRLSISRDTSKSQVFLKMNSLQTEDTAIYFCTRSHWEPFDYWGQGVMVTVSS
VL: MESQTQALISLLLWVYGTCGDIVMTQSPFSLAVSEGEMVTINCKSSQGLLSSGNQKNYLAWYQQRPGQSPKLLIYYASTRQSGVPDRFIGGGSGTDFTLTISDVQAEDLADYYCLQHYSYPPTFGSGTKLEIK
B4: 6E5C11: rat anti-α11β1 mAb; VH SEQ ID NO: 151, VL SEQ ID NO: 152 (antibody, V domains shown)
VH: B3 VH with K24R, S54T, A59P, G73D, A81T, N102S
VL: B3 VL with F29L, M38T, I41M, G48S, L50F, R65K, G91S, A106T, S119N
B5: 9-E16: mouse anti-α11β1 mAb; VH SEQ ID NO: 111, VL SEQ ID NO: 112 (antibody, V domains shown)
VH: EVQLQQSGPELVKPGASVKISCKASGYTFTDYYMHWVKQKPGQGLEWIGEIYPGSGNPYYNEKFKGKATLTADKSSSSAYMQLSSLTSEDSAVYFCARTSYGRVGTGFAYWGQGTLVTVSA
VL: NFVMTQTPLSLPVSLGDQASISCRSSQSLLHSNGNTYLHWYLQKPGQSPKLLIYKVSNRFSGVPDRFSGSGSGTDFTLKINRVETEDLGIYFCSQSSHVPTFGAGTKLELK
B6: 8-I14: mouse anti-α11β1 mAb; VH SEQ ID NO: 109, VL SEQ ID NO: 110 (antibody, V domains shown)
VH: EVQLQQSGPELVKPGASVKKSCKASGYTFTDYYMHWVKQKPGQGLEWIGKIYPGSGNTHYNEKFKGKATLTADKSSSTAYMQLSSLTSEDSAVYFCATNYYGYRAMNYWGQGSSVTVSS
VL: DIHLTQSPSSLSASLGERISLTCRASQDIYISLNWFQQKPDGTIKLLIYGTSSLDSGVPKRFSGSRSGSDYSLTISSLESEDFADYYCLQYASSPYTFGGGTKLEIK
B7: 9-G05: mouse anti-α11β1 mAb; VH SEQ ID NO: 103, VL SEQ ID NO: 104 (antibody, V domains shown)
VH: EVQLQQSGPELVKPGASVKIPCKASGYTFPDYNMDWVKQSHGKSLEWIGYINPDNGGTIYNQKFKGKATLTVDKSSSTAYMELRSLTSEDTAVYYCARLDSSGYGYYAMDYWGQGTSVTVSS
VL: DIVLTQSPASLAVSLGQRATISCRASESVDNYGISFMHWYQQKPGQPPKLLIYRASNLDSEIPARFSGSGSRTDFTLTIDPVETDDVATYYCQQSYKDPRTFGGGTKLEIK

Assays:
α11β1 I Domain [1] = biological target: T1, α11β1 I Domain (Homo sapiens, UniProt Q9UKX5); test: ELISA binding to in-house generated α11β1 I domain; design: An in-house generated I domain of α11β1 was used; made in house; conditions: in words
T1 sequence (Q9UKX5 164-345 limits assumed): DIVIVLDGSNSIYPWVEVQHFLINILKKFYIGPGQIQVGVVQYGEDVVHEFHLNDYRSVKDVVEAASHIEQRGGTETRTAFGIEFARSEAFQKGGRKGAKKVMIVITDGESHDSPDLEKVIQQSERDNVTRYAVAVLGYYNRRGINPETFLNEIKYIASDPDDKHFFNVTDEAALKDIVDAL
Method: 0.25 μg/mL of target antigen (recombinant human or mouse α11β1) was plated in a 96-well plate over night at 4° C. Plates were washed (PBS with 0.1% Tween-20), blocked (PBS with 2% BSA and 0.05% Tween-20) for 1 hour at room temperature and incubated with a range of antibody concentrations for 1 hour at room temperature. Subsequently, plates were washed and incubated with biotinylated anti-rabbit/mouse/human IgG in a 1:1000 dilution buffer and incubated for 1 hour at room temperature. After washing the plates, Streptavidin HRP was added at 1:200 in dilution buffer and incubated for 1 hour at room temperature. Ultra TMB ELISA substrate solution was added and the plates incubated for 5 minutes on a plate shaker. The reaction was stopped by adding stop solution to each well and plates were read at 450 nm.
Data was also collected to determine whether antibodies of interest bind to the I domain of α11β1. An in-house generated I domain of α11β1 was used. […] Mouse antibodies 10-F23, 10-L15, 7-O8, 6-A12, 9-G05 and 9-E16 and rabbit antibodies 7-H12 and 2-D3 were also tested for binding against the in-house generated α11β1 I domain. FIGS. 3A and 3B show graphs illustrating binding data from exemplary mAbs.

[2] = test system: CHO-K1 human α11-mediated rat tail type I collagen gel contraction; test: Collagen gel contraction assay; type: cell-based; conditions: compared to untreated condition
Method: 24-well plates were blocked with 2% BSA in PBS overnight at 37° C. The following day, the plates were washed 3 times with PBS before being used in the assay. Human CHO cell lines expressing α11 were harvested and resuspended at 1.25×10^6 in ExpiCHO Expression Medium (Gibco™ Cat #A2910002). The collagen gel solution was prepared by diluting 3 mg/mL stock collagen type I (Gibco™ Collagen I Rat Protein, Tail Cat #A1048301) to 1 mg/mL in the media containing the CHO cells. Sodium hydroxide was added to the solution to neutralize the pH and 400 μL of the collagen solution was added to each well of the 24-well plates. For the wells where the antibodies were included in the collagen gel solution, CHO cells were prepared at 2.5×10^6 and the antibodies were prepared at 2× final concentration in ExpiCHO media. The cells and antibodies were then combined 1:1 before the addition of the stock collagen type 1. The gels were allowed to polymerize for 60 minutes at 37° C. Antibodies were added to the ExpiCHO media, which was then layered on top of the polymerized gel (400 μL/well). The gels were incubated for 6 days at 37° C. before gel contraction was quantified. Images of each well were analyzed using Image J and gel contraction was determined as a percentage of the initial gel area.
Selected exemplary antibodies were tested for the ability to inhibit cell-mediated 3D gel contraction because this ability is directly linked to the functionality of the exemplary antibodies.

[3] = biological target: T2, adhesion of CHO-K1 cells expressing human α11 to rat tail type I collagen (Homo sapiens, UniProt Q9UKX5); test: Cell adhesion inhibition (CHO-K1 hu α11 cells to type I collagen, xCelligence); type: cell-based; conditions: in words
T2 construct: expressed in transfected cells; host or cells: CHO-K1
T2 sequence (Q9UKX5 23-1188): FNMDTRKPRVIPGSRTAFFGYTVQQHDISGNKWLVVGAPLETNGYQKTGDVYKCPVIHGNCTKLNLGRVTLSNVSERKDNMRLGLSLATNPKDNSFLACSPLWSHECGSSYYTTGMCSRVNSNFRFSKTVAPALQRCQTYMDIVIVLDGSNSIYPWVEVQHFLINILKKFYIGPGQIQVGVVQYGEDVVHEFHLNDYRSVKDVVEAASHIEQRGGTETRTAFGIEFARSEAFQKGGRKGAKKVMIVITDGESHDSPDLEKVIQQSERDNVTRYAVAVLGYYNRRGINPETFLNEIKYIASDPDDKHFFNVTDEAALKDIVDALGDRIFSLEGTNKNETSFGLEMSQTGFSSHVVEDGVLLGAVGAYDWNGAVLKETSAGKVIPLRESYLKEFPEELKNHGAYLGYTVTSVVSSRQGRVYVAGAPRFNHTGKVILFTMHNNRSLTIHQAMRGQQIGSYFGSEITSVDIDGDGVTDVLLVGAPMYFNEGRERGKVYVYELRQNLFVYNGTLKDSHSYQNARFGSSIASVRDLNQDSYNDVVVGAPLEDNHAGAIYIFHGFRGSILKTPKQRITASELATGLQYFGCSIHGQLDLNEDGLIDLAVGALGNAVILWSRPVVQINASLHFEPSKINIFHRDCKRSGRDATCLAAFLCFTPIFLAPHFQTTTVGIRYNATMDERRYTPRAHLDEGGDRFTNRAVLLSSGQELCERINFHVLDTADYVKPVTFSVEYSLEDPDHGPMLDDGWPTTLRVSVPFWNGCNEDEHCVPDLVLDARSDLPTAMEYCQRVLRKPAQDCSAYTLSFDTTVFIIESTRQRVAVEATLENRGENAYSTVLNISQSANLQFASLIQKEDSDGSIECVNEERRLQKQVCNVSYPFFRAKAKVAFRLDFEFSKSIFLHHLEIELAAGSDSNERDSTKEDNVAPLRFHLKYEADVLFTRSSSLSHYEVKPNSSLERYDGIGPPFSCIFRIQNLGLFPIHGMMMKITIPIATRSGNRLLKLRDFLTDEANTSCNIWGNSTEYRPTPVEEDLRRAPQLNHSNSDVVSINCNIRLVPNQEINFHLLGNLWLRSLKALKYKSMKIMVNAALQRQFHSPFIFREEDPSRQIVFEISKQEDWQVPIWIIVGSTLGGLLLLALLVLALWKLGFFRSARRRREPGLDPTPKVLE
Method: 0.6×10^6 cells/mL were incubated with each antibody at a range of concentrations for 20 minutes at 37° C. E-Plate VIEW 96 PET plate coated with 100 ng/ml type I collagen or PBS overnight at room temperature was blocked in 3% BSA for 1 house at room temperature. After washing the plate with PBS, cell and antibody mixture was added to the wells and the plate was places into an xCelligence machine. Cell adhesion was recorded over 6 hours. The time point of maximum cell adhesion was used for comparison relative to control.
A CHO-K1 hu α11 cell line was used to assess the ability of mAbs to block α11β1-mediated binding to type I collagen. […] In the “Untreated” condition, cells were plated on type I collagen but no antibody was added and in the “Uncoated” condition, cells were seeded onto BSA-coated wells containing no type I collagen. Statistics were performed using one-way ANOVA followed by Dunnett's multiple comparisons test. […] Therefore, it is possible that these mAbs bind on an α11β1 domain that keeps the integrin in a low or intermediate affinity state. […] Nine human mAbs were also tested for their ability to inhibit the binding of human CHO-α11 cells to type I collagen.

α11β1 I Domain [4] = biological target: T1, α11β1 I Domain; test: SPR binding to α11β1 I Domain; conditions: in words
Method: The affinity of antibodies for human α11β1 was measured by surface plasmon resonance assay (SPR). Affinity was measured at pH 7.6 and 25° C. with a Biacore T200 instrument. Anti-HIS antibody was immobilized on the SPR sensor surface using EDC/NHS covalent attachment. HIS-tagged human α11β1 was captured on the sensor surface and a single-cycle kinetics assay was used. Increasing concentrations of test antibody were injected in series over the sensor-bound α11β1. Dissociation was monitored for 1000 seconds. A sensor surface with only anti-HIS antibody and a series of blank injections were used to double-reference subtract the data. A 1:1 Langmuir model was fit to the data to estimate the kinetic association and dissociation constants. The affinity (equilibrium dissociation constant) of the interaction was calculated by dividing the kinetic dissociation constant by the kinetic association constant. Between injection cycles α11β1 and bound antibody were removed with an injection of 10 mM glycine at pH 1.5.
The binding affinity of antibodies for the α11β1 Headpiece and α11β1 I Domain as measured by SPR is shown in FIG. 10A and FIG. 10B, respectively.

| Molecule | Binding to the I domain of α11β1 (α11β1 I Domain [1]) | Inhibition of CHO-hu α11-mediated collagen gel contraction [2] | Inhibition of cell adhesion to type I collagen [3] | Binding to α11β1 I domain (SPR) (α11β1 I Domain [4]) |
| --- | --- | --- | --- | --- |
| B1 | did not bind to the I-domain | – | – | – |
| B2 | – | inhibited | – | – |
| B3 | medium | – | – | – |
| B4 | low | – | – | – |
| B5 | I-domain binders; also recorded: bound the I domain | inhibited | decrease cell adhesion to collagen | – |
| B6 | – | inhibited | – | – |
| B7 | I-domain binders; also recorded: bound the I domain | inhibited | decrease cell adhesion to collagen | do bind |
